Reference: the supplement of paper PMC10126150
± gives the standard deviation of the averaged measurements.

Tested on: ATP
Assay: switch fluorescence ratio, 500 uM ATP over buffer (Cy3 cluster intensity, sum of 5 cycles each) (fold (ratio)); higher = stronger signal-on switching upon ATP binding; sequences stand for … in TCGTCGGCAGCGTCAGATGTGTATAAGAGACAGTTTTTTTTTTTTTTTTTTTTTTTTT…TC
Settings: aptamer strand: ATP DNA aptamer (quencher-CACCTGGGGGAGTATTGCGGAGGAAGG + anchor), 100 nM annealed; ATP concentration: 500 uM
Method in brief: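 After annealing to 100 nM quencher-labelled ATP aptamer, Cy3-labelled switching-strand clusters on a modified Illumina MiSeq flow-cell were imaged in selection buffer. A second image followed after 15 min with 500 uM ATP at 22 °C, and five such buffer/ATP cycles were done, each separated by NaOH stripping and re-annealing. The fluorescence ratio, averaged per switch-domain sequence, is summed target-cycle over summed buffer-cycle Cy3 intensity per cluster, with clusters outside 100-1000 RFU excluded.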
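Also: ATP exposure 15 min at 22 °C before imaging.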

| Sequence | switch fluorescence ratio |
| --- | --- |
| GTATGGTGGG | 1.02 ± 0.04 |
| GTATGTAAT | 0.997 ± 0.011 |
| GTATGTCGGT | 0.997 ± 0.051 |
| GTATTAATTT | 0.9833 ± 0.0046 |
| GTATTAGGCG | 1.02 ± 0.02 |
| GTATTATTTT | 0.979 ± 0.024 |
| GTATTGGTTG | 0.983 ± 0.026 |
| GTATTTACAT | 0.9862 ± 0.0048 |
| GTCAATGGGA | 1 ± 0.029 |
| GTCAATGGTG | 0.9901 ± 0.0074 |
| GTCAATTGAT | 0.9924 ± 0.0074 |
| GTCAATTTGT | 1.02 ± 0.018 |
| GTCACAACGG | 0.999 ± 0.024 |
| GTCACACTAT | 1.02 ± 0.034 |
| GTCACAGGCT | 1.02 ± 0.026 |
| GTCACAGTTG | 1.015 ± 0.0045 |
| GTCAGAAATG | 0.982 ± 0.013 |
| GTCAGGAAGT | 1.02 ± 0.016 |
| GTCAGGGTTG | 1 ± 0.048 |
| GTCAGTAGGC | 0.991 ± 0.017 |
| GTCATAGATT | 0.989 ± 0.011 |
| GTCATAGCGT | 0.977 ± 0.016 |
| GTCATAGGGG | 1.01 ± 0.026 |
| GTCATAGTTC | 0.966 ± 0.015 |
| GTCATCAGGT | 1.008 ± 0.0058 |

| Sequence | switch fluorescence ratio |
| --- | --- |
| GTCATGGTAG | 1.02 ± 0.031 |
| GTCATTGATT | 1.01 ± 0.011 |
| GTCCAAAAAC | 1.15 ± 0.038 |
| GTCCACCTAC | 1.38 ± 0.015 |
| GTCCATCCCA | 1.001 ± 0.009 |
| GTCCCGACTT | 1.01 ± 0.013 |
| GTCCGGGGCT | 1.04 ± 0.036 |
| GTCCGGGGGT | 1.07 ± 0.11 |
| GTCCTTATTT | 1.08 ± 0.022 |
| GTCCTTGATA | 1.01 ± 0.024 |
| GTCGAGGATG | 1.018 ± 0.0049 |
| GTCGCGGGGT | 1.027 ± 0.0036 |
| GTCGCTGTGG | 1.04 ± 0.0021 |
| GTCGGAGCGA | 1.83 ± 0.57 |
| GTCGGAGGGG | 0.982 ± 0.043 |
| GTCGGGAAGT | 0.958 ± 0.024 |
| GTCGGGGCTG | 0.972 ± 0.049 |
| GTCGGGGGTG | 0.983 ± 0.041 |
| GTCGGTTTTT | 0.972 ± 0.022 |
| GTCGTGCGTA | 1.03 ± 0.099 |
| GTCTAAATCG | 0.981 ± 0.015 |
| GTCTAAGGAA | 0.993 ± 0.016 |
| GTCTACATTG | 0.997 ± 0.01 |
| GTCTAGAAAG | 0.985 ± 0.016 |
| GTCTCGTTCC | 1.09 ± 0.14 |

| Sequence | switch fluorescence ratio |
| --- | --- |
| GTCTGAACGT | 0.995 ± 0.081 |
| GTCTGGCAGT | 1.01 ± 0.043 |
| GTCTGTATGT | 1.015 ± 0.0028 |
| GTCTGTGGGA | 0.9998 ± 0.0091 |
| GTCTGTTCGC | 1.02 ± 0.085 |
| GTCTTATATT | 1.01 ± 0.06 |
| GTCTTCACGG | 0.999 ± 0.01 |
| GTCTTCATGG | 0.989 ± 0.02 |
| GTCTTTGTTA | 1.01 ± 0.022 |
| GTGAAAAATT | 0.9862 ± 0.0086 |
| GTGAAAGTTT | 0.998 ± 0.062 |
| GTGAAATAGG | 0.981 ± 0.014 |
| GTGAAATTGT | 1.01 ± 0.034 |
| GTGAACGGCG | 1.06 ± 0.014 |
| GTGAATGGGG | 0.969 ± 0.042 |
| GTGAATTGGG | 1.03 ± 0.03 |
| GTGACAGGGG | 1.05 ± 0.033 |
| GTGACCCCTA | 1.13 ± 0.063 |
| GTGACGAGTG | 0.993 ± 0.047 |
| GTGACTCCGA | 1.78 ± 0.12 |
| GTGACTTTGT | 1 ± 0.023 |
| GTGACTTTTA | 1.01 ± 0.035 |
| GTGAGAGCAT | 1.05 ± 0.028 |
| GTGAGAGGGT | 0.998 ± 0.029 |
| GTGAGATATT | 0.989 ± 0.043 |

| Sequence | switch fluorescence ratio |
| --- | --- |
| GTGAGCATGT | 1.01 ± 0.024 |
| GTGAGCGACG | 0.965 ± 0.027 |
| GTGAGGGAAC | 0.9729 ± 0.0052 |
| GTGAGGGACG | 0.999 ± 0.081 |
| GTGAGGGTCG | 1.01 ± 0.011 |
| GTGAGGTGCA | 1.01 ± 0.052 |
| GTGAGTAAGC | 1 ± 0.0035 |
| GTGAGTCTGT | 0.9891 ± 0.001 |
| GTGAGTTGGG | 1.01 ± 0.014 |
| GTGATAAAGG | 1.01 ± 0.03 |
| GTGATAAGGT | 1 ± 0.021 |
| GTGATAGATG | 1.013 ± 0.01 |
| GTGATCTATA | 0.99 ± 0.025 |
| GTGATTCGGG | 0.972 ± 0.013 |
| GTGATTGGCT | 0.978 ± 0.016 |
| GTGATTTATT | 0.988 ± 0.019 |
| GTGATTTTAT | 0.969 ± 0.028 |
| GTGATTTTTT | 1.01 ± 0.019 |
| GTGCATGCGT | 0.998 ± 0.03 |
| GTGCCAGGAT | 1.03 ± 0.052 |
| GTGCCTGATG | 1.05 ± 0.046 |
| GTGCGAAATC | 1.25 ± 0.033 |
| GTGCGAACTT | 1.015 ± 0.0028 |
| GTGCGAGAAC | 1.01 ± 0.025 |
| GTGCGAGAGC | 1.01 ± 0.043 |
